The target in one test is PD-L1 (UniProt Q9NZQ7). The experiment in a line: SPR. (Surface plasmon resonance follows binding to a sensor surface in real time, without labels.)
In another test the target is T1, CD3e (UniProt P07766).
T1 chain: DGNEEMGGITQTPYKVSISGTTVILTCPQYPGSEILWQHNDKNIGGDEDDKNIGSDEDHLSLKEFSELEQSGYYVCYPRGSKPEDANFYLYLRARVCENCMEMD
The test is described as follows: SPR.

Results on 4 molecules are retold here after patent US20260327324 (published 2026).

Chain of PD-L1 (Q9NZQ7 19-238): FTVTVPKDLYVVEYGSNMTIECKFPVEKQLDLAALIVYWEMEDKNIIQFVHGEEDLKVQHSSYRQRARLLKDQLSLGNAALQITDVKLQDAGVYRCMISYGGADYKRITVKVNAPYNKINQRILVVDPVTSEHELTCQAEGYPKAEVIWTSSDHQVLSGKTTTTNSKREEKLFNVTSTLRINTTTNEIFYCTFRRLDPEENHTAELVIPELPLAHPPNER

B1: PRO3477 (37-20-B03-sc09.1 human consensus LCDR2) (antibody)
chain: DIQMTQSPASLSASVGDRVTITCQASQSIGTYLAWYQQKPGKPPKLLIYAASSLQSGVPSRFSGSGSGTDFTLTISSLQPEDFATYYCQSNFYSDSTTIGPNAFGTGTKVTVLGGGGGSGGGGSGGGGSGGGGSEVQLVESGGGLVQPGGSLRLSCAASGFSFNSDYWIYWVRQAPGKGLEWIASIYGGSSGNTQYASWAQGRFTISRDNSKNTVYLQMNSLRAEDTAVYFCARGYVDYGGATDLWGQGTLVTVSS
On to B1, for which, in the test with PD-L1, the binding result is recorded as “no binding”.

B2: PRO3478 (37-20-B03-sc09.1 Y42S human consensus LCDR2) (antibody)
chain: DIQMTQSPASLSASVGDRVTITCQASQSIGTYLAWYQQKPGKPPKLLIYAASSLQSGVPSRFSGSGSGTDFTLTISSLQPEDFATYYCQSNFYSDSTTIGPNAFGTGTKVTVLGGGGGSGGGGSGGGGSGGGGSEVQLVESGGGLVQPGGSLRLSCAASGFSFNSDYWISWVRQAPGKGLEWIASIYGGSSGNTQYASWAQGRFTISRDNSKNTVYLQMNSLRAEDTAVYFCARGYVDYGGATDLWGQGTLVTVSS
With B2, the binding result with PD-L1 is “no binding”.

B3: PRO3718 (28-21-D09-sc04 A67G_S68G) (antibody)
chain: DIQMTQSPSSLSASVGDRVTITCQSSQSVFSNNYLAWFQQKPGQSPKRLIYSGGTLASGVPSRFSGSGSGTDFTLTISSLQPEDFATYYCLGSYACSSADCYVFGTGTKVTVLGGGGGSGGGGSGGGGSGGGGSEVQLVESGGGLVQPGGSLRLSCAASGFSLSSYDMSWVRQAPGKGLAWIGASYASGPTYYASWAKGRFTISRDNSKNTVYLQMNSLRAEDTATYFCARGGWTGTSHSNIWGQGTLVTVSS
The molecule B3 showed a Kd with CD3e of 5.2 nM.

B4: PRO2781 (28-21-D09-sc04) (antibody)
chain: DIQMTQSPSSLSASVGDRVTITCQSSQSVFSNNYLAWFQQKPGQSPKRLIYSASTLASGVPSRFSGSGSGTDFTLTISSLQPEDFATYYCLGSYACSSADCYVFGTGTKVTVLGGGGGSGGGGSGGGGSGGGGSEVQLVESGGGLVQPGGSLRLSCAASGFSLSSYDMSWVRQAPGKGLAWIGASYASGPTYYASWAKGRFTISRDNSKNTVYLQMNSLRAEDTATYFCARGGWTGTSHSNIWGQGTLVTVSS
Turning to B4, the Kd with CD3e came out at 5.88 nM.

A word on the Kd: it is a measure of binding affinity in units of concentration. A high value points to lower affinity.
